By EC50 is commonly meant the concentration giving half of the maximal effect. Low values mean higher potency in that assay, high ones lower potency in that assay. For orientation: IC50 means the midpoint of a concentration-inhibition curve.

Assay [1] deals with T1, full-length human SIRPγ (NP_061026.2) on cells (human, UniProt Q9P1W8 29-387).
T1 construct: also called CHO-hSIRPγ; γ WT
The assay is described as follows: flow cytometry, Expi-CHO cells expressing full-length wild-type human SIRPγ. As for the experimental part: […] These cells are blocked with donkey IgG and incubated on ice with increasing concentrations of antibodies for 60 minutes, washed and stained with AF647-conjugated donkey F(ab′)₂ anti-human IgG antibodies. Stained cells are washed, fixed, and analyzed by flow cytometry. Median fluorescent intensity is determined and used as a measure of antibody binding.
(A flow cytometer gives signals particle by particle.)

The target of assay [2] is T2, full-length human SIRPβ1 D→H on Expi-CHO cells (human, UniProt O00241 30-398).
T2 construct: the entry already carries the change (PDDV to PDHV)
The assay is described as follows: flow cytometry, Expi-CHO cells expressing full-length human SIRPβ1 D→H. As for the experimental part: (§1) These cells are blocked with donkey IgG and incubated on ice with increasing concentrations of antibodies for 60 minutes, washed and stained with AF647-conjugated donkey F(ab′)₂ anti-human IgG antibodies. Stained cells are washed, fixed, and analyzed by flow cytometry. Median fluorescent intensity is determined and used as a measure of antibody binding.

In assay [3] the target is T3, full-length human SIRPβ1 (NP_006056.2) on cells (human, UniProt O00241 30-398).
T3 construct: also called β1 WT
The assay is described as follows: flow cytometry, U937 SIRPα-KO transfectants. As for the experimental part:
(§2) Antibody binding to cells expressing full-length human SIRPβ1 (NP_006056.2) and SIRPβL (NP_001129316.1) is evaluated by flow cytometry. SIRPβ1- or SIRPβL-expressing U937^{SIRPα KO} cells are blocked with donkey IgG and incubated on ice with increasing concentrations of antibodies for 60 minutes, washed and stained with AF647-conjugated donkey F(ab′)₂ anti-human IgG secondary reagent. Cells are washed, fixed, and analyzed by flow cytometry. Median fluorescent intensity is determined and used as a measure of antibody binding.

For assay [4], the target named is T4, full-length human SIRPβL H→D on Expi-CHO cells (human, UniProt Q5TFQ8 30-398).
T4 construct: the entry already carries the change (PDHV to PDDV); also called βL WT H→D
Put plainly: flow cytometry, Expi-CHO cells. How it is done: as §1, with “Expi-CHO parental cells are transduced with lentiviruses containing either full-length wild-type human SIRPβL (Q5TFQ8) or full-length human SIRPβL with a single amino acid point mutation (Table 62) and sorted to achieve matching expression levels. These” for “These”
(§3) A single amino acid substitution (H→D) introduced within the loop region maintained, strengthened, or facilitated antibody binding to these cells (FIG. 34B, Table 63).

The target of assay [5] is T3, full-length human SIRPβ1 (NP_006056.2) …. The assay is described as follows: flow cytometry, Expi-CHO cells. As for the experimental part:
as §1

The target of assay [6] is ED-tagged human SIRPα V2 receptor on Jurkat signaling reporter cells (human, UniProt P78324 31-504). The assay is described as follows: cell-based or functional assay.
Assay [7] deals with ED-tagged human SIRPα V1 receptor on Jurkat signaling reporter cells (human, UniProt P78324 31-504). The assay is described as follows: cell-based or functional assay.
The target of assay [8] is T5, full-length human SIRPβL (NP_001129316.1) on cells (human, UniProt Q5TFQ8 30-398).
T5 construct: one molecule for U937 SIRPα-KO transfectants (NP_001129316.1) and Expi-CHO transfectants (Q5TFQ8); also called SIRPβ1v3; βL WT
Put plainly: flow cytometry, Expi-CHO cells expressing full-length wild-type human SIRPβL. How it is done: as §1, with “Expi-CHO parental cells are transduced with lentiviruses containing either full-length wild-type human SIRPβL (Q5TFQ8) or full-length human SIRPβL with a single amino acid point mutation (Table 62) and sorted to achieve matching expression levels. These” for “These”
as §3

For assay [9], the target named is T6, full-length human SIRPγ EN→DD on Expi-CHO cells (human, UniProt Q9P1W8 29-387).
T6 construct: the entry already carries the change (PENV to PDDV)
T6 chain: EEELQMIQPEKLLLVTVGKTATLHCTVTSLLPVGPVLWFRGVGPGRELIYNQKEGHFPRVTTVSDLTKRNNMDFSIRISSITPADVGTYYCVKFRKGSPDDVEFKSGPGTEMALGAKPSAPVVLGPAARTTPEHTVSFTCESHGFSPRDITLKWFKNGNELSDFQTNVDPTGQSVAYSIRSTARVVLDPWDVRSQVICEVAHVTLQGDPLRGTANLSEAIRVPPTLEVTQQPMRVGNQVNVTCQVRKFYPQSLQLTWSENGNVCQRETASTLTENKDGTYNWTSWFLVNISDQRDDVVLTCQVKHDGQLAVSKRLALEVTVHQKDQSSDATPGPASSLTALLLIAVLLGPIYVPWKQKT
Put plainly: flow cytometry, Expi-CHO cells. As for the experimental part: (§4) Expi-CHO parental cells are transduced with lentiviruses containing either full-length wild-type human SIRPγ ([…]) or full-length human SIRPγ with amino acid point mutations (Table 64) and sorted to achieve matching expression levels. These cells are blocked with donkey IgG and incubated on ice with increasing concentrations of antibodies for 60 minutes, washed and stained with AF647-conjugated donkey F(ab′)₂ anti-human IgG antibodies. Stained cells are washed, fixed, and analyzed by flow cytometry. Median fluorescent intensity is determined and used as a measure of antibody binding.

Assay [10] addresses T7, full-length human SIRPγ N→D on Expi-CHO cells (human, UniProt Q9P1W8 29-387).
T7 construct: the entry already carries the change (PENV to PEDV)
Put plainly: flow cytometry, Expi-CHO cells. As for the experimental part:
as §4

The target of assay [11] is T8, full-length human SIRPγ E→D on Expi-CHO cells (human, UniProt Q9P1W8 29-387).
T8 construct: the entry already carries the change (PENV to PDNV)
Put plainly: flow cytometry, Expi-CHO cells expressing full-length human SIRPγ E→D. As for the experimental part:
as §4

For assay [12], the target named is T1, full-length human SIRPγ (NP_061026.2) …. Put plainly: flow cytometry, primary human CD3+ T cells (endogenous SIRPγ). How it is done: (§5) Antibody binding to primary human T cells expressing endogenous SIRPγ is evaluated by flow cytometry. Human peripheral blood mononuclear cells (PBMCs) are blocked with donkey IgG and incubated on ice with increasing concentrations of antibody for 60 minutes, washed and stained with AF647-conjugated donkey F(ab′)₂ anti-human IgG secondary reagent. […] Cells are washed, fixed, and analyzed by flow cytometry. Median fluorescent intensity of CD3+ gated population is determined and used as a measure of antibody binding.

Assay [13] has as its target T9, full-length human SIRPαV1 (NP_542970.1) on cells (human, UniProt P78324 31-504).
T9 construct: one molecule for CHO-K1 and Expi-CHO transfectants (NP_542970.1) and for endogenous V1 on U-937 cells and on CD14+ monocytes of V1/V1 donors; also called CHO-hSIRPαV1; αV1 WT
Put plainly: flow cytometry, CD14+ monocytes V1V1. As for the experimental part: as §5, with “human” for “human T”, “expressing SIRPα” for “expressing endogenous SIRPγ”, “(PBMCs) from donors genotyped as homozygous for the SIRPα V1 allele, V2 allele, or heterozygous for both alleles” for “(PBMCs)”, “of the CD14+” for “of CD3+ gated”, “population was” for “population is”

Assay [14] addresses T5, full-length human SIRPβL …. The assay is described as follows: flow cytometry, U937 SIRPα-KO transfectants. As for the experimental part: as §2
In assay [15] the target is T10, full-length human SIRPαV2 (CAA71403.1) on cells (human, UniProt P78324 31-504).
T10 construct: one molecule for CHO-K1 and Expi-CHO transfectants (CAA71403.1) and for endogenous V2 on THP-1 cells and on CD14+ monocytes of V2/V2 donors; also called CHO-hSIRPαV2; αV2 WT
The assay is described as follows: flow cytometry, competition with CD47 tetramer, monocytes V2V2. How it is done: Cells are washed, fixed, and analyzed by flow cytometry. Median fluorescent intensity of CD14+gated population is determined and used as a measure of CD47 binding.

In assay [16] the target is T10, full-length human SIRPαV2 (CAA71403.1) …. Put plainly: flow cytometry, CD14+ monocytes V2V2. As for the experimental part:
as §5, with “human” for “human T”, “expressing SIRPα” for “expressing endogenous SIRPγ”, “(PBMCs) from donors genotyped as homozygous for the SIRPα V1 allele, V2 allele, or heterozygous for both alleles” for “(PBMCs)”, “of the CD14+” for “of CD3+ gated”, “population was” for “population is”

For assay [17], the target named is T5, full-length human SIRPβL …. The assay is described as follows: flow cytometry, U937 SIRPα-KO cells expressing full-length human SIRPβL. How it is done: as §2

B1: Antibody A4 (antibody, human IgG1, kappa, L234A L235A, V domains shown)
VH: EVQLVESGGGLVQPGGSLRLSCAASGFTLSSYDMHWVRQAPGKGLEWVSAIGTAGDTYYTGSVKGRFTISRENAKNSLYLQMNSLRAADTAVYYCVRGGVWDDAFDIWGQGTMVTVSS
VL: DIQMTQSPSSLSASVGDRVTITCRASQGINNYAAWFQQKPGKAPKSLIYTASSLHSGVPSKFSGSGSGTDFTLTISSLQPEDFATYYCQQYVSYPYTFGQGTKLEIKR
In the case of B1, the binding result in [1], in assay [2], in assay [8] and in assay [11] was “no binding (tested: about 67 nM)” in each case. For the same molecule, the EC50 came to 200 pM in [3]; 500 pM in assay [4]; 1500 pM in assay [5]; 700 pM in [9]; 500 pM in [10]. Further, the “Blockade of Cellular CD47-Mediated SIRPα Signaling; IC50” value (“Blockade” below) in [6] was determined as 50 pM; in assay [7], 40 pM.

B2: Antibody G (antibody, human IgG4 S228P, kappa)
heavy: not shown
light: DIVMTQSPLSLPVTPGEPASISCKSSQSLLYSNGYNYLDWYLQRPGQSPQLLIYLGSNRASGVPDRFSGSGSGTDFTLKISRVEAEDVGVFYCMQALQTPLTFGGGTKVEIKRTVAAPSVFIFPPSDEQLKSGTASVVCLLNNFYPREAKVQWKVDNALQSGNSQESVTEQDSKDSTYSLSSTLTLSKADYEKHKVYACEVTHQGLSSPVTKSFNRGEC
In the case of B2, the binding result in assay [12] is recorded as “no binding (tested: about 67 nM)”. Also, the 50% effective concentration (EC50) in [13] worked out at 300 pM; in [14], 300 pM; in assay [16] it was 400 pM. The molecule further registered a half-maximal inhibitory concentration (IC50) in [15] of 220 pM. In addition, the “Blockade” value in [6] came out at 30 pM; in assay [7], 40 pM.

B3: Antibody F (antibody, human IgG4 S228P, kappa)
heavy: not shown
light: DIQMTQSPSSLSASVGDRVTITCRASQDINNYLAWFQQKPGKAPKSLIYTASSLHSGVPSKFSGSGSGTDFTLTISSLQPEDFATYYCQQYVSYPYTFGQGTKLEIKRTVAAPSVFIFPPSDEQLKSGTASVVCLLNNFYPREAKVQWKVDNALQSGNSQESVTEQDSKDSTYSLSSTLTLSKADYEKHKVYACEVTHQGLSSPVTKSFNRGEC
For the molecule B3, the binding result is “no binding (tested: about 200 nM)” in assay [17] and “no binding (tested: about 67 nM)” in [12]. The midpoint of the response in assay [3], the EC50, lay at 200 pM. Also, the figures for the “Blockade” value in assay [6] and in assay [7] were 30 pM and 40 pM, respectively.
